Experimental data published in paper PMC2612750, “Identification of Pax6-Dependent Gene Regulatory Networks in the Mouse Lens”.

Experiments:
[1] = biological target: Pax6 GST-PD/HD (UniProt P63015 4-269); assay: EMSA; EMSA: 0.5-1 ng 5'-end-labelled probe, 2 ug poly(dI-dC), room temperature 10 min, 5% PAGE in 0.5x TBE; competitor 50 ng cold P6CON (~50:1); binding buffer, salt; conditions: protein: recombinant; tags: GST; label: 5'-end label (radioactive)
[2] = biological target: Pax6 GST-PD (UniProt P63015 4-130); assay: as above; conditions: protein: recombinant; tags: GST; label: 5'-end label (radioactive)
Pax6 GST-PD, sequence (P63015 4-130): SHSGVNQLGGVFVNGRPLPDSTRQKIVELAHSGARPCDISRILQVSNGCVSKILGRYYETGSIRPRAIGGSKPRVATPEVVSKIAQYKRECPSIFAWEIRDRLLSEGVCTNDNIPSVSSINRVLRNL

Pax6 GST-PD/HD, sequence (P63015 4-269): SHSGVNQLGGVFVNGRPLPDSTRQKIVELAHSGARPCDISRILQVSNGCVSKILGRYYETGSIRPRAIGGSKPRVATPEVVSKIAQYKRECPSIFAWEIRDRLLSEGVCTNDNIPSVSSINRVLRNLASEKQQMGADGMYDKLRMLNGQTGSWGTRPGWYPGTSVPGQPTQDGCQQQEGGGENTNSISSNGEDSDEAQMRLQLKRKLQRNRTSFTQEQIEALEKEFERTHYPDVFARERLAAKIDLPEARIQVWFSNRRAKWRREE

B1: P6CON (dsDNA)
DNA 1: GGATGCAATTTCACGCATGAGTGCCTCGAGGGATCCACGTCGA
DNA 2: TCGACGTGGATCCCTCGAGGCACTCATGCGTGAAATTGCATCC
binding result [1]: binds | binding result [2]: binds
